According to patent publication US20120058116A1 (published 2012):

These binders were tested against GLP-1 receptor on CHO 6CRE GLP1R cells (assay: cell-based or functional assay).

Binder	Average EC50 (pM), luciferase reporter in CHO 6CRE GLP1R cells [pM]
Ex4-ScrL (antibody, mouse IgG2a) heavy: QVQLVQSGSELKKPGASVKVSCKASGYTFTNYGMNWVRQAPGQGLEWMGWINTRNGKSTYVDDFKGRFVFSLDTSVSTAYLQISSLKADDTAVYYCAREGNMDGYFPFTYWGQGTLVTVSSAKTTAPSVYPLAPVCGDTTGSSVTLGCLVKGYFPEPVTLTWNSGSLSSGVHTFPAVLQSDLYTLSSSVTVTSSTWPSQSITCNVAHPASSTKVDKKIEPRGPTIKPCPPCKCPAPNLAGAPSVFIFPPKIKDVLMISLSPIVTCVVVDVSEDDPDVQISWFVNNVEVHTAQTQTHREDYNSTLRVVSALPIQHQDWMSGKEFKCKVNNKDLPAPIERTISKPKGSVRAPQVYVLPPPEEEMTKKQVTLTCMVTDFMPEDIYVEWTNNGKTELNYKNTEPVLDSDGSYFMYSKLRVEKKNWVERNSYSCSVVHEGLHNHHTTKSFSRTPGK light: not shown	117
GLP-1ScrL (antibody, mouse IgG2a) heavy: QVQLVQSGSELKKPGASVKVSCKASGYTFTNYGMNWVRQAPGQGLEWMGWINTRNGKSTYVDDFKGRFVFSLDTSVSTAYLQISSLKADDTAVYYCAREGNMDGYFPFTYWGQGTLVTVSSAKTTAPSVYPLAPVCGDTTGSSVTLGCLVKGYFPEPVTLTWNSGSLSSGVHTFPAVLQSDLYTLSSSVTVTSSTWPSQSITCNVAHPASSTKVDKKIEPRGPTIKPCPPCKCPAPNLAGAPSVFIFPPKIKDVLMISLSPIVTCVVVDVSEDDPDVQISWFVNNVEVHTAQTQTHREDYNSTLRVVSALPIQHQDWMSGKEFKCKVNNKDLPAPIERTISKPKGSVRAPQVYVLPPPEEEMTKKQVTLTCMVTDFMPEDIYVEWTNNGKTELNYKNTEPVLDSDGSYFMYSKLRVEKKNWVERNSYSCSVVHEGLHNHHTTKSFSRTPGK light: HGEGTFTSDVSSYLEGQAAKEFIAWLVKGRGSGGGGSGGGGSGDIVMTQSPSSLSASVGDRVTITCKASQNVGTNVAWYQQKPGKAPKALIYSASYRYSGVPDRFSGSGSGTDFTLTISSLQPEDFATYYCQQYNSYPLTFGGGTKVEIKRTVAAPTVSIFPPSSEQLTSGGASVVCFLNNFYPKDINVKWKIDGSERQNGVLNSWTDQDSKDSTYSMSSTLTLTKDEYERHNSYTCEATHKTSTSPIVKSFNRNEC	889
Ex4-FGFR1cA1H (antibody, mouse IgG2a) heavy: not shown light: EIVLTQSPLSLPVTPGEPASISCRSSQSLRHSNGYNYLDWYLQKPGQSPQLLIYLASNRASGVPDRFSGSGSGTDFTLKISRVEAEDVGVYYCMQALQIPPTFGPGTKVDIKRTVAAPTVSIFPPSSEQLTSGGASVVCFLNNFYPKDINVKWKIDGSERQNGVLNSWTDQDSKDSTYSMSSTLTLTKDEYERHNSYTCEATHKTSTSPIVKSFNRNEC	117
GLP1ScrH/L (antibody, mouse IgG2a) heavy: HGEGTFTSDVSSYLEGQAAKEFIAWLVKGRGSGGGGSGGGGSGQVQLVQSGSELKKPGASVKVSCKASGYTFTNYGMNWVRQAPGQGLEWMGWINTRNGKSTYVDDFKGRFVFSLDTSVSTAYLQISSLKADDTAVYYCAREGNMDGYFPFTYWGQGTLVTVSSAKTTAPSVYPLAPVCGDTTGSSVTLGCLVKGYFPEPVTLTWNSGSLSSGVHTFPAVLQSDLYTLSSSVTVTSSTWPSQSITCNVAHPASSTKVDKKIEPRGPTIKPCPPCKCPAPNLAGAPSVFIFPPKIKDVLMISLSPIVTCVVVDVSEDDPDVQISWFVNNVEVHTAQTQTHREDYNSTLRVVSALPIQHQDWMSGKEFKCKVNNKDLPAPIERTISKPKGSVRAPQVYVLPPPEEEMTKKQVTLTCMVTDFMPEDIYVEWTNNGKTELNYKNTEPVLDSDGSYFMYSKLRVEKKNWVERNSYSCSVVHEGLHNHHTTKSFSRTPGK light: HGEGTFTSDVSSYLEGQAAKEFIAWLVKGRGSGGGGSGGGGSGDIVMTQSPSSLSASVGDRVTITCKASQNVGTNVAWYQQKPGKAPKALIYSASYRYSGVPDRFSGSGSGTDFTLTISSLQPEDFATYYCQQYNSYPLTFGGGTKVEIKRTVAAPTVSIFPPSSEQLTSGGASVVCFLNNFYPKDINVKWKIDGSERQNGVLNSWTDQDSKDSTYSMSSTLTLTKDEYERHNSYTCEATHKTSTSPIVKSFNRNEC	475
Ex4-FGFR1cA1L (antibody, mouse IgG2a) heavy: QVQLVQSGAEVKKPGSSVKVSCKASGQTFTGYYMHWVRQAPGQGLEWMGRIIPILGIAQKFQGRVTITADKSTSTAYMELSSLRSEDTAVYYCARGGDLGGMDVWGQGTLVTVSSAKTTAPSVYPLAPVCGDTTGSSVTLGCLVKGYFPEPVTLTWNSGSLSSGVHTFPAVLQSDLYTLSSSVTVTSSTWPSQSITCNVAHPASSTKVDKKIEPRGPTIKPCPPCKCPAPNLAGAPSVFIFPPKIKDVLMISLSPIVTCVVVDVSEDDPDVQISWFVNNVEVHTAQTQTHREDYNSTLRVVSALPIQHQDWMSGKEFKCKVNNKDLPAPIERTISKPKGSVRAPQVYVLPPPEEEMTKKQVTLTCMVTDFMPEDIYVEWTNNGKTELNYKNTEPVLDSDGSYFMYSKLRVEKKNWVERNSYSCSVVHEGLHNHHTTKSFSRTPGK light: not shown	109
Ex4-ScrH (antibody, mouse IgG2a, kappa) heavy: not shown light: DIVMTQSPSSLSASVGDRVTITCKASQNVGTNVAWYQQKPGKAPKALIYSASYRYSGVPDRFSGSGSGTDFTLTISSLQPEDFATYYCQQYNSYPLTFGGGTKVEIKRTDAAPTVSIFPPSSEQLTSGGASVVCFLNNFYPKDINVKWKIDGSERQNGVLNSWTDQDSKDSTYSMSSTLTLTKDEYERHNSYTCEATHKTSTSPIVKSFNRNEC	153
GLP-1ScrH (antibody, mouse IgG2a, kappa) heavy: HGEGTFTSDVSSYLEGQAAKEFIAWLVKGRGSGGGGSGGGGSGQVQLVQSGSELKKPGASVKVSCKASGYTFTNYGMNWVRQAPGQGLEWMGWINTRNGKSTYVDDFKGRFVFSLDTSVSTAYLQISSLKADDTAVYYCAREGNMDGYFPFTYWGQGTLVTVSSAKTTAPSVYPLAPVCGDTTGSSVTLGCLVKGYFPEPVTLTWNSGSLSSGVHTFPAVLQSDLYTLSSSVTVTSSTWPSQSITCNVAHPASSTKVDKKIEPRGPTIKPCPPCKCPAPNLAGAPSVFIFPPKIKDVLMISLSPIVTCVVVDVSEDDPDVQISWFVNNVEVHTAQTQTHREDYNSTLRVVSALPIQHQDWMSGKEFKCKVNNKDLPAPIERTISKPKGSVRAPQVYVLPPPEEEMTKKQVTLTCMVTDFMPEDIYVEWTNNGKTELNYKNTEPVLDSDGSYFMYSKLRVEKKNWVERNSYSCSVVHEGLHNHHTTKSFSRTPGK light: DIVMTQSPSSLSASVGDRVTITCKASQNVGTNVAWYQQKPGKAPKALIYSASYRYSGVPDRFSGSGSGTDFTLTISSLQPEDFATYYCQQYNSYPLTFGGGTKVEIKRTDAAPTVSIFPPSSEQLTSGGASVVCFLNNFYPKDINVKWKIDGSERQNGVLNSWTDQDSKDSTYSMSSTLTLTKDEYERHNSYTCEATHKTSTSPIVKSFNRNEC	485
